{
  "source": "patent US6953675",
  "key": {"[1]": {"target": "antigen of LL2 (not named; LL2 is called an anti-B-cell monoclonal antibody)", "assay": "cell binding assay, calculated from the ID50 values; cells not named"}, "WN": {"target": "WN", "assay": "competitive binding ELISA with WN as the surrogate Ag, from ID50 values"}, "[2]": {"target": "antigen of hMN14 (not named)", "assay": "competitive binding assay; format and target not stated"}, "[3]": {"target": "antigen of LL2 (not named; LL2 is called an anti-B-cell monoclonal antibody)", "assay": "competitive binding assay; format and target not stated"}},
  "data": [
    {"substance": "LL2 F(ab')2, DOX-dextran conjugated (5.1 DOX/F(ab')2) (antibody)", "values": [
      {"measurement": "Immunoreactivity (%), Cell binding", "setting": "[1]", "result": 41.9, "unit": "%"},
      {"measurement": "Immunoreactivity (%), ELISA", "setting": "WN", "result": 42.2, "unit": "%"}
    ]},
    {"substance": "hMN14 F(ab')2 with the grafted LL2 Vk glycosylation site, LC-DTPA conjugated at the Vk-CHO (2.1 chelators/F(ab')2) (antibody)", "values": [
      {"measurement": "Immunoreactivity (from ID50 against unmodified control F(ab')2)", "setting": "[2]", "result": 100, "unit": "%"}
    ]},
    {"substance": "LL2 F(ab')2, non-conjugated (murine mAb, naturally glycosylated in the V domain) (antibody)", "values": [
      {"measurement": "Immunoreactivity (%), Cell binding", "setting": "[1]", "result": 100, "unit": "%"},
      {"measurement": "Immunoreactivity (%), ELISA", "setting": "WN", "result": 100, "unit": "%"}
    ]},
    {"substance": "mLL2 F(ab')2, LC-DTPA conjugated at the Vk-CHO (4.6 chelators/F(ab')2) (antibody)", "values": [
      {"measurement": "Immunoreactivity (from ID50 against unmodified control F(ab')2)", "setting": "[3]", "result": 100, "unit": "%"}
    ]},
    {"substance": "mLL2 F(ab')2, DTPA conjugated at random lysines (4.3 chelators/F(ab')2) (antibody)", "values": [
      {"measurement": "Immunoreactivity (from ID50 against unmodified control F(ab')2)", "setting": "[3]", "result": 21, "unit": "%"}
    ]},
    {"substance": "mLL2 F(ab')2, DTPA conjugated at the Vk-CHO (5.5 chelators/F(ab')2) (antibody)", "values": [
      {"measurement": "Immunoreactivity (from ID50 against unmodified control F(ab')2)", "setting": "[3]", "result": 100, "unit": "%"}
    ]},
    {"substance": "mLL2 F(ab')2, DTPA conjugated at random lysines (2.2 chelators/F(ab')2) (antibody)", "values": [
      {"measurement": "Immunoreactivity (from ID50 against unmodified control F(ab')2)", "setting": "[3]", "result": 75, "unit": "%"}
    ]}
  ]
}
